# From PMC2612750, “Identification of Pax6-Dependent Gene Regulatory Networks in the Mouse Lens”
# B1: P6CON (dsDNA)
# DNA 1: GGATGCAATTTCACGCATGAGTGCCTCGAGGGATCCACGTCGA
# DNA 2: TCGACGTGGATCCCTCGAGGCACTCATGCGTGAAATTGCATCC
# Columns and labels:
# [1] = target: Pax6 GST-PD/HD (UniProt P63015 4-269); assay: EMSA; EMSA: 0.5-1 ng 5'-end-labelled probe, 2 ug poly(dI-dC), room temperature 10 min, 5% PAGE in 0.5x TBE; competitor 50 ng cold P6CON (~50:1); binding buffer, salt; conditions: protein: recombinant; tags: GST; label: 5'-end label (radioactive)
# [2] = target: Pax6 GST-PD (UniProt P63015 4-130); assay: as above; conditions: protein: recombinant; tags: GST; label: 5'-end label (radioactive)
# Sequence of Pax6 GST-PD (P63015 4-130): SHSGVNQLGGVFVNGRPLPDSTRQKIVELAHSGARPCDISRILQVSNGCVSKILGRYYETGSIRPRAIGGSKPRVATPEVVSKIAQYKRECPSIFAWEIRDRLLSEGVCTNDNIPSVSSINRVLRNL
# Sequence of Pax6 GST-PD/HD (P63015 4-269): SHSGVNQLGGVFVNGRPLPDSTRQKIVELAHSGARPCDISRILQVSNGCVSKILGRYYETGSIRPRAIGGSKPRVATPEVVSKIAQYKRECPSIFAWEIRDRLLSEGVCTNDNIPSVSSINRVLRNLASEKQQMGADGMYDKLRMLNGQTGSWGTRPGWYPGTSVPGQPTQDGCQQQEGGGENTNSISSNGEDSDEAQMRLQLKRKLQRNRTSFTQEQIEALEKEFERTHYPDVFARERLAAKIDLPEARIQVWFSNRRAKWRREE
binder,measurement,setting,value
B1,binding result,[1],binds
same,binding result,[2],binds
